Target: T1, SecYEG translocon embedded in phospholipid-containing nanodiscs (Escherichia coli, UniProt P0AGA2 1-443; P0AG96 1-127; P0AG99 1-110)
T1 construct: SecY, Escherichia coli; SecE, Escherichia coli; SecG, Escherichia coli; membrane scaffold protein MSP1D1, the belt of the nanodisc; the disc holds E. coli total lipids; also called non-mutated SecYEG; copies: 1 + 1 + 1 + 2
Test: not stated; proOmpA75-RNC with SecYEG in nanodiscs (Supplementary Fig. S4b)
Details: both partners purified

B1: proOmpA75-RNC: ribosome-nascent-chain complex carrying the nascent chain of outer-membrane protein A (complex)
chain: MKKTAIAIAVALAGFATVAQAAPKDNTWYTGAKLGWSQYHDTGFINNNGPTHENQLGAGAFGGYQVNPYVGFEMG
Binder B1 has a Kd of 15 ± 3 nM.

Source: paper PMC6028451, “Cotranslational protein targeting to the membrane: Nascent-chain transfer in a quaternary complex formed at the translocon” (Scientific Reports, 2018)
